Experimental data taken from patent publication US20210107988A1 (Genmab, published 2021).
Residue numbers refer to the chain shown, from its start. In names and notes the source's numbering stands.

B1: IgG1-11B8-E430G-S440K with introduced mutation G237A (antibody, name in EU numbering)
heavy: EVQLVQSGGGLVHPGGSLRLSCTGSGFTFSYHAMHWVRQAPGKGLEWVSIIGTGGVTYYADSVKGRFTISRDNVKNSLYLQMNSLRAEDMAVYYCARDYYGAGSFYDGLYGMDVWGQGTTVTVSSASTKGPSVFPLAPSSKSTSGGTAALGCLVKDYFPEPVTVSWNSGALTSGVHTFPAVLQSSGLYSLSSVVTVPSSSLGTQTYICNVNHKPSNTKVDKRVEPKSCDKTHTCPPCPAPELLGAPSVFLFPPKPKDTLMISRTPEVTCVVVDVSHEDPEVKFNWYVDGVEVHNAKTKPREEQYNSTYRVVSVLTVLHQDWLNGKEYKCKVSNKALPAPIEKTISKAKGQPREPQVYTLPPSREEMTKNQVSLTCLVKGFYPSDIAVEWESNGQPENNYKTTPPVLDSDGSFFLYSKLTVDKSRWQQGNVFSCSVMHGALHNHYTQKKLSLSPGK
light: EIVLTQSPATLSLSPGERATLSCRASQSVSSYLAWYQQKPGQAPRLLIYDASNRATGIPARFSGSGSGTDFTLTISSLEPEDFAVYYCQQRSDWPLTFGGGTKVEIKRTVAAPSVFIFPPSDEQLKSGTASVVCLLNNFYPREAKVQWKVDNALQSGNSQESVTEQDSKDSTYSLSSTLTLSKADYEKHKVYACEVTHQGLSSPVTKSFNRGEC
notes: also called IgG1-11B8-E430G-S440K-G237A
B2: IgG1-CAMPATH-1H-E430G-K439E with introduced mutation G237A (antibody, name in EU numbering)
heavy: QVQLQESGPGLVRPSQTLSLTCTVSGFTFTDFYMNWVRQPPGRGLEWIGFIRDKAKGYTTEYNPSVKGRVTMLVDTSKNQFSLRLSSVTAADTAVYYCAREGHTAAPFDYWGQGSLVTVSSASTKGPSVFPLAPSSKSTSGGTAALGCLVKDYFPEPVTVSWNSGALTSGVHTFPAVLQSSGLYSLSSVVTVPSSSLGTQTYICNVNHKPSNTKVDKRVEPKSCDKTHTCPPCPAPELLGAPSVFLFPPKPKDTLMISRTPEVTCVVVDVSHEDPEVKFNWYVDGVEVHNAKTKPREEQYNSTYRVVSVLTVLHQDWLNGKEYKCKVSNKALPAPIEKTISKAKGQPREPQVYTLPPSREEMTKNQVSLTCLVKGFYPSDIAVEWESNGQPENNYKTTPPVLDSDGSFFLYSKLTVDKSRWQQGNVFSCSVMHGALHNHYTQESLSLSPGK
light: not shown
notes: also called IgG1-CAMPATH-1H-E430G-K439E-G237A
B3: IgG1-b12 (human IgG1 antibody b12, HIV gp120-specific) (antibody)
heavy: not shown
light: EIVLTQSPGTLSLSPGERATFSCRSSHSIRSRRVAWYQHKPGQAPRLVIHGVSNRASGISDRFSGSGSGTDFTLTITRVEPEDFALYYCQVYGASSYTFGQGTKLERKRTVAAPSVFIFPPSDEQLKSGTASVVCLLNNFYPREAKVQWKVDNALQSGNSQESVTEQDSKDSTYSLSSTLTLSKADYEKHKVYACEVTHQGLSSPVTKSFNRGEC
notes: also called IgG-b12
B4: IgG1-Campath-E430G I253G/K439E (antibody)
heavy: B2 heavy with A241G, I257G
light: not shown
notes: also called IgG1-CAMPATH-1H-E430G-K439E with I253G; constant region IgG1m(f)-I253G-E430G-K439E
B5: IgG1-Campath-E430G I253R/S440K (antibody)
heavy: B2 heavy with A241G, I257R, E443K, S444K
light: not shown
notes: also called IgG1-CAMPATH-1H-E430G-S440K with I253R; constant region IgG1m(f)-I253R-E430G-S440K
B6: IgG1-Campath-E430G H310R/S440K (antibody)
heavy: B2 heavy with A241G, H314R, E443K, S444K
light: not shown
notes: also called IgG1-CAMPATH-1H-E430G-S440K with H310R; constant region IgG1m(f)-H310R-E430G-S440K
B7: IgG1-Campath-E430G H310D/K439E (antibody)
heavy: B2 heavy with A241G, H314D
light: not shown
notes: also called IgG1-CAMPATH-1H-E430G-K439E with H310D; constant region IgG1m(f)-H310D-E430G-K439E
B8: IgG1-Campath-E430G I253K/S440K (antibody)
heavy: B2 heavy with A241G, I257K, E443K, S444K
light: not shown
notes: also called IgG1-CAMPATH-1H-E430G-S440K with I253K; constant region IgG1m(f)-I253K-E430G-S440K
B9: IgG1-CAMPATH-1H-E430G-K439E-Q438N (antibody)
heavy: B2 heavy with A241G, Q442N
light: not shown
notes: also called IgG1-Campath-E430G Q438N/K439E
B10: IgG1-CAMPATH-1H-E430G-S440K-Q438N (antibody)
heavy: B2 heavy with A241G, Q442N, E443K, S444K
light: not shown
B11: IgG1-CAMPATH-1H-E430G-K439E-Y436K (antibody)
heavy: B2 heavy with A241G, Y440K
light: not shown
B12: IgG1-CAMPATH-1H-E430G-S440K-Y436K (antibody)
heavy: B2 heavy with A241G, Y440K, E443K, S444K
light: not shown
notes: also called IgG1-Campath-E430G Y436K/S440K
B13: IgG1-CAMPATH-1H-E430G-S440K-Y436N (antibody)
heavy: B2 heavy with A241G, Y440N, E443K, S444K
light: not shown
B14: IgG1-CAMPATH-1H-E430G-K439E-Y436N (antibody)
heavy: B2 heavy with A241G, Y440N
light: not shown
notes: also called IgG1-Campath-E430G Y436N/K439E
B15: IgG1-CAMPATH-1H-E430G-S440K-Q438R (antibody)
heavy: B2 heavy with A241G, Q442R, E443K, S444K
light: not shown
notes: also called IgG1-Campath-E430G Q438R/S440K
B16: IgG1-CAMPATH-1H-E430G-K439E-Q438R (antibody)
heavy: B2 heavy with A241G, Q442R
light: not shown

What follows are binders tested against dimeric, His-tagged, C-terminally biotinylated ECD of FcγRIIIA allotype 158F (C-terminally biotinylated) (assay: FcγR ELISA).

Row | Binder | binding result
1 | B1 | no binding (tested: 20 µg/mL)

Each binder was assayed against T1, dimeric, His-tagged, C-terminally biotinylated ECD of FcγRIIIA allotype 158V (C-terminally biotinylated) (assay: FcγR ELISA).
T1 construct: also called diFCGR3A-158V-HisBAP; IIIA-158V

Row | Binder | binding result
2 | B2 | no binding (tested: 20 µg/mL)
3 | B1 | no binding (tested: 20 µg/mL)

What follows are binders tested against T2, dimeric, His-tagged, C-terminally biotinylated ECD of FcγRIIA allotype 131H (Homo sapiens (Human), UniProt P12318 34-215, C-terminally biotinylated) (assay: FcγR ELISA).
T2 sequence: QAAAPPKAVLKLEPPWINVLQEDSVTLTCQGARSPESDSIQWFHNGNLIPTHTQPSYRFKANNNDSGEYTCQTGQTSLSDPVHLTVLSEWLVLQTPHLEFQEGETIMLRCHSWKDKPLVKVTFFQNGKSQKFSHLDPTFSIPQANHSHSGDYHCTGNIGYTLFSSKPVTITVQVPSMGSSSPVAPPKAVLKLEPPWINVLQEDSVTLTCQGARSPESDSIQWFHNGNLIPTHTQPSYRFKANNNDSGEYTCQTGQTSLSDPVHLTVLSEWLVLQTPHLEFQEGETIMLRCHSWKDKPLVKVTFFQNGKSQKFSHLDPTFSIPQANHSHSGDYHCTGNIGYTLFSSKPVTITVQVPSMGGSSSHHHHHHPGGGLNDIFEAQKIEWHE

Row | Binder | binding result
4 | B2 | no binding (tested: 20 µg/mL)
5 | B1 | no binding (tested: 20 µg/mL)

These binders were tested against T3, FcRnECDHis-B2M-BIO (biotinylated extracellular domain of human FcRn with a C-terminal His tag as dimer with … (human, UniProt P55899 24-297)); P61769 21-119, biotinylated (site not stated)) (assay: FcRn ELISA, pH 6.0).
T3 construct: Coated on Streptawell plates at 5 µg/mL; also called FcRnhsECDHis
T3 sequence (P55899 other isoform, or with tags, fused parts or gaps limits assumed, chain 1 of 2): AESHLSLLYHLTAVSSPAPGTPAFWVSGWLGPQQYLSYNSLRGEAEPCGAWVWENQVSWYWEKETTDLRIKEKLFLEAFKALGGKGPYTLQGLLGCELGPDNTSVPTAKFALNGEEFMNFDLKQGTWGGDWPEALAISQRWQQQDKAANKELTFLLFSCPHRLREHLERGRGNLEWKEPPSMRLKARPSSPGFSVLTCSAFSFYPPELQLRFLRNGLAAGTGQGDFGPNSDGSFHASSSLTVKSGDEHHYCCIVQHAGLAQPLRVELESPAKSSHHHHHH
T3 sequence (P61769 21-119 limits assumed, chain 2 of 2): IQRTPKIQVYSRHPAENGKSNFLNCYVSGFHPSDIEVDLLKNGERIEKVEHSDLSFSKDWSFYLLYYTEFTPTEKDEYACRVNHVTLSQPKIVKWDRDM

Row | Binder | binding result
6 | B3 | binds

The binders below were run against T3, FcRnECDHis-B2M-BIO (biotinylated …) (assay: FcRn ELISA, pH 7.4).

Row | Binder | binding result
7 | B4 | no binding (tested: 40 µg/mL)
8 | B5 | no binding (tested: 40 µg/mL)
9 | B6 | no binding (tested: 40 µg/mL)
10 | B7 | no binding (tested: 40 µg/mL)
11 | B8 | no binding (tested: 40 µg/mL)

Target: T4, dimeric, His-tagged, C-terminally biotinylated ECD of FcγRIIA allotype 131R (Homo sapiens (Human), UniProt P12318 36-215, C-terminally biotinylated)
T4 chain: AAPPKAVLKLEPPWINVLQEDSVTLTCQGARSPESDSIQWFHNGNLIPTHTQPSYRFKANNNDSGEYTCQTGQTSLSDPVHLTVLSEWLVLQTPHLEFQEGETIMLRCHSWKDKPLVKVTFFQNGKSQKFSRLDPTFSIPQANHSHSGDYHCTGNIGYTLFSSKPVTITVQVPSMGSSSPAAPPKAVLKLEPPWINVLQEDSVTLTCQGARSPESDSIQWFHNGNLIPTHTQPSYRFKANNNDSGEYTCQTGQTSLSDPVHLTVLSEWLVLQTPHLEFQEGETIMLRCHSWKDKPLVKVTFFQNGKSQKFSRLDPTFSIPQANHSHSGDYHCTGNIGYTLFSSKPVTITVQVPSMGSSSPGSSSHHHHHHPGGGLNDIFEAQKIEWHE
Test: FcγR ELISA, 20 µg/mL antibody

Row | Binder | binding result
12 | B9 | binds
13 | B10 | binds
14 | B11 | binds
15 | B12 | binds
16 | B13 | binds
17 | B14 | binds
18 | B15 | binds
19 | B16 | binds

What follows are binders tested against T5, dimeric, His-tagged, C-terminally biotinylated ECD of FcγRIIB (Homo sapiens (Human), UniProt P31994 44-223, C-terminally biotinylated) (assay: FcγR ELISA, 20 µg/mL antibody).
T5 construct: also called diFCGR2B-HisBAP
T5 sequence: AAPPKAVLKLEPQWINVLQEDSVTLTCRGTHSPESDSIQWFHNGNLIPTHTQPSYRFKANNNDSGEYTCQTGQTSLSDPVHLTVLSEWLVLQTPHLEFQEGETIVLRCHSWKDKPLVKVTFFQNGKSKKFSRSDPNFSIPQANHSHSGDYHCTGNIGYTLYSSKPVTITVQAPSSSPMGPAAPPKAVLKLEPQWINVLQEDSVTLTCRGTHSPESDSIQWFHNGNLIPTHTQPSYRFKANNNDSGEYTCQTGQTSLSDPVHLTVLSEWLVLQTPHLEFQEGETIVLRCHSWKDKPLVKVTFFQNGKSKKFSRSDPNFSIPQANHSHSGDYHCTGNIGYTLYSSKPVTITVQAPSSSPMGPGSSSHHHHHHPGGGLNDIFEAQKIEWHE

Row | Binder | binding result
20 | B9 | binds
21 | B10 | binds
22 | B11 | binds
23 | B12 | binds
24 | B13 | binds
25 | B14 | binds
26 | B15 | binds
27 | B16 | binds

The binders below were run against T2, dimeric, His-tagged, C-terminally … (assay: FcγR ELISA, 20 µg/mL antibody).

Row | Binder | binding result
28 | B9 | binds
29 | B10 | binds
30 | B11 | binds
31 | B12 | binds
32 | B13 | binds
33 | B14 | binds
34 | B15 | binds
35 | B16 | binds
